Assay results reported in US20190309059A1 (SHANGHAI PHARMAEXPLORER, published 2019).
Where “and” joins values, the source holds several entries; their conditions need not be identical. Identical values can stand only once.

T1: mouse IL-13 (purchased from sino biological) (mouse, UniProt P20109 19-131)
T1 chain: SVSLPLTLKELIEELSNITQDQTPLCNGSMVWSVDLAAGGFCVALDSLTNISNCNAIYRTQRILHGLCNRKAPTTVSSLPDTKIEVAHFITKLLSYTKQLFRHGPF


Columns and labels:
[1] = target: cynomolgus IL-13 (purchased from sino biological) (cynomolgus) (UniProt Q0PW92); experiment: ELISA, cynomolgus IL-13; antibody at 66.7 nM
Sequence of cynomolgus IL-13 (purchased from sino biological) (cynomolgus) (Q0PW92 entry or part of it): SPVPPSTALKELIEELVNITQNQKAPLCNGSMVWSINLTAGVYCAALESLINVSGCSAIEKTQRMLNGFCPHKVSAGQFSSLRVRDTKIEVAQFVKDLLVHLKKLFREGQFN

[2] = target: cynomolgus IL-13 (purchased from sino biological) (cynomolgus) (UniProt Q0PW92); experiment: ELISA, cynomolgus IL-13; antibody at 13.33 nM
[3] = target: cynomolgus IL-13 (purchased from sino biological) (cynomolgus) (UniProt Q0PW92); experiment: ELISA, cynomolgus IL-13; antibody at 0.107 nM
[4] = target: his-labeled human IL-13 (immunogen A) (human) (UniProt P35225); experiment: ELISA, biotin-immunogen A; antibody at 0.02 nM
[5] = target: his-labeled human IL-13 (immunogen A) (human) (UniProt P35225); experiment: ELISA, biotin-immunogen A; antibody at 0.53 nM
[6] = target: his-labeled human IL-13 (immunogen A) (human) (UniProt P35225); experiment: ELISA, biotin-immunogen A; antibody at 2.67 nM
[7] = target: his-labeled human IL-13R130Q variant (human) (UniProt P35225); experiment: ELISA, IL-13R130Q variant; antibody at 0.53 nM
Sequence of his-labeled human IL-13R130Q variant (human) (P35225 other isoform, or with tags, fused parts or gaps mutant): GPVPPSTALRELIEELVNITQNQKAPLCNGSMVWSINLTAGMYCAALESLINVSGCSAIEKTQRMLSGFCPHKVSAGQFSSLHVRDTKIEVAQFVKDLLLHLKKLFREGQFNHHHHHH

[8] = target: his-labeled human IL-13R130Q variant (human) (UniProt P35225); experiment: ELISA, IL-13R130Q variant; antibody at 2.67 nM
[9] = target: his-labeled human IL-13 (immunogen A) (human) (UniProt P35225); experiment: ELISA, biotin-immunogen A; antibody at 0.001 nM
[10] = target: his-labeled human IL-13R130Q variant (human) (UniProt P35225); experiment: ELISA, IL-13R130Q variant; antibody at 0.021 nM
[11] = target: his-labeled human IL-13R130Q variant (human) (UniProt P35225); experiment: ELISA, IL-13R130Q variant; antibody at 13.33 nM
[12] = target: his-labeled human IL-13 (immunogen A) (human) (UniProt P35225); experiment: ELISA, biotin-immunogen A; antibody at 0.00 nM (6th dilution)
[13] = target: his-labeled human IL-13 (immunogen A) (human) (UniProt P35225); experiment: ELISA, biotin-immunogen A; antibody at 0.00 nM (as printed, 7th dilution)
[14] = target: his-labeled human IL-13 (immunogen A) (human) (UniProt P35225); experiment: ELISA, biotin-immunogen A; antibody at 0.00 nM (8th dilution)
[15] = target: his-labeled human IL-13 (immunogen A) (human) (UniProt P35225); experiment: ELISA, biotin-immunogen A; antibody at 0.004 nM
[16] = target: his-labeled human IL-13 (immunogen A) (human) (UniProt P35225); experiment: ELISA, biotin-immunogen A; antibody at 13.33 nM
[17] = target: T1, mouse IL-13 (purchased from sino …); experiment: ELISA, mouse IL-13; antibody at 0.11 nM
[18] = target: T1, mouse IL-13 (purchased from sino …); experiment: ELISA, mouse IL-13; antibody at 0.53 nM
[19] = target: T1, mouse IL-13 (purchased from sino …); experiment: ELISA, mouse IL-13; antibody at 2.67 nM
[20] = target: T1, mouse IL-13 (purchased from sino …); experiment: ELISA, mouse IL-13; antibody at 0.000 nM
[21] = target: T1, mouse IL-13 (purchased from sino …); experiment: ELISA, mouse IL-13; antibody at 0.001 nM
[22] = target: T1, mouse IL-13 (purchased from sino …); experiment: ELISA, mouse IL-13; antibody at 0.004 nM
[23] = target: T1, mouse IL-13 (purchased from sino …); experiment: ELISA, mouse IL-13; antibody at 0.021 nM
[24] = target: T1, mouse IL-13 (purchased from sino …); experiment: ELISA, mouse IL-13; antibody at 13.33 nM
[25] = target: his-labeled human IL-13 (immunogen A) (human) (UniProt P35225); experiment: ELISA: biotin-labeled immunogen A on streptavidin plate, antibody titrated, HRP secondary antibody, OD450
[26] = target: his-labeled human IL-13 (immunogen A) (human) (UniProt P35225); experiment: FACS blocking assay: antibody titrated with biotin-labeled immunogen A (20 ng/mL); blocked partner IL-13Ra2 on HEK293 clone 1A1; Alexa 488 streptavidin
[27] = target: cynomolgus IL-13 (purchased from sino biological) (cynomolgus) (UniProt Q0PW92); experiment: ELISA, cynomolgus IL-13; antibody at 333.3 nM
[28] = target: his-labeled human IL-13 (immunogen A) (human) (UniProt P35225); experiment: SPR (Biacore)
[29] = target: his-labeled human IL-13 (immunogen A) (human) (UniProt P35225); experiment: SPR (Biacore), antibody captured by anti-human Fc, immunogen A as analyte
[30] = target: his-labeled human IL-13R130Q variant (human) (UniProt P35225); experiment: ELISA: IL-13R130Q variant on the plate, antibody titrated, HRP secondary antibody, OD450
[31] = target: his-labeled human IL-13R130Q variant (human) (UniProt P35225); experiment: ELISA, IL-13R130Q variant; antibody at 66.67 nM
[32] = target: cynomolgus IL-13 (purchased from sino biological) (cynomolgus) (UniProt Q0PW92); experiment: ELISA: cynomolgus IL-13 on the plate, antibody titrated, HRP secondary antibody, OD450

Row | Molecule | OD450 nm [1] | OD450 nm [2] | OD450 nm [3] | OD450 nm [4] | OD450 nm [5] | OD450 nm [6] | OD450 nm [7] | OD450 nm [8] | OD450 nm [9] | OD450 nm [10] | OD450 nm [11] | OD450 nm [12] | OD450 nm [13] | OD450 nm [14] | OD450 nm [16] | EC50 (read off the curve) [25] [nM] | IC50 (read off the curve) [26] [nM] | Kd [28] [nM] | Kd [29] [nM] | koff [29] [s⁻¹] | further results
1 | IgG control (mouse IgG) (antibody) | 0.1 | 0.21 | 0.059 | 0.07 | 0.07 and 0.06 | 0.08 | 0.06 | 0.06 | 0.05 | 0.06 | 0.09 | 0.08 | 0.07 | 0.07 |  |  |  |  |  |  | 
2 | 28A2E11 (lead antibody, mouse hybridoma) (antibody, V domains shown, Mouse monoclonal antibody purified from hybridoma supernatant on Protein G) VH: EVQLQQSGAELVKPGASVKLSCTASGFNIKDYYMHWVKQRTEQGLEWIGRIDPEDGETKYAPKFHDKATLTADTSSNTAYLQFSSLASEDTAVYYCTRYDYYGPFAYWGQGTLVTVSA VL: QAVVTQESVLTTSPGETVTLTCRSSTGAVTTSNYANWVQEKPDHLFTGLIGGTNNRAPGVPARFSGSLIGDKAALTITGAQTEDEAIYFCALWYINHFIFGSGTKVTVL |  | 1.78 |  |  | 1.32 | 1.69 |  |  | 0.07 |  |  |  |  |  | 1.74 | 0.2 | 0.6 |  |  |  | OD450 nm [15]: 0.1; OD450 nm [17]: 0.07; OD450 nm [18]: 0.07; OD450 nm [19]: 0.08; OD450 nm [20]: 0.07; OD450 nm [21]: 0.06; OD450 nm [22]: 0.07; OD450 nm [23]: 0.08; OD450 nm [24]: 0.08
3 | c28A2E11 (mouse-human chimeric IL-13 antibody) (antibody, V domains shown) VH: EVQLQQSGAELVKPGASVKLSCTASGFNIKDYYMHWVKQRTEQGLEWIGRIDPEDGETKYAPKFHDKATLTADTSSNTAYLQFSSLASEDTAVYYCTRYDYYGPFAYWGQGTLVTVSA VL: QAVVTQESVLTTSPGETVTLTCRSSTGAVTTSNYANWVQEKPDHLFTGLIGGTNNRAPGVPARFSGSLIGDKAALTITGAQTEDEAIYFCALWYINHFIFGSGTKVTVL | 3.4 |  | 0.183 | 0.25 | 1.93 | 2.6 |  |  |  |  |  | 0.1 | 0.07 | 0.06 | 2.71 | 0.2 | 1 | < 90 | 7.98 | 0.00438 | OD450 nm [27]: 3.9; kon [29]: 549000 M⁻¹ s⁻¹; EC50 (read off the curve) [30]: 0.3 nM
4 | c35E2C3 (mouse-human chimeric IL-13 antibody) (antibody, V domains shown) VH: EVQLQESGPGLAKPSQTLSLTCSVTGYSITSDYWNWIRKFPGNKLEYMGYISYNGNTYYNPSLKSQISITRDTSKNQLYLQLKSATTEDTATYYCARLAKWTWYFDIWGTGTTVTVSS VL: DIQMNQSPSSLSASLGDTITITCHASQNINVWLSWYQQKPGSLPKLLIYKASDLHTGVPSRFSGSGSGTGFTLTISSLQPEDIATYYCQQGQSYPYTFGGGTKLEIK | 3.8 |  | 0.181 | 0.18 | 1.63 | 2.4 | 2.4 | 3.1 |  | 0.28 | 3.3 | 0.09 | 0.07 | 0.06 | 2.59 | 0.4 | 0.3 | < 90 | 0.863 | 0.00026 | OD450 nm [31]: 3.4; kon [29]: 300000 M⁻¹ s⁻¹; EC50 (read off the curve) [30]: 0.3 nM
5 | 29D9H8 (lead antibody, mouse hybridoma) (antibody, V domains shown, Mouse monoclonal antibody purified from hybridoma supernatant on Protein G) VH: QVQLQQSGAELVRPGASVTLSCKASGYTFTDYEMHWVKQTPVHGLEWIGGIDPETGGTASNQKFKGKAILTADKSSSTAYMELRSLTSEDSAVYYCTSGDYFGGGPFAYWGQGTLVTVSA VL: DIKMTQSPSSMYASLGERVTITCKASQDINSYLSWFQQKPGKSPKTLIYRANRLVDGVPSRFSGSGSGQDYSLTISSLDYEDMGIYYCLQYDEFPYTFGGGTKLEIK |  | 2.46 |  |  | 1.4 | 1.61 |  |  | 0.07 |  |  |  |  |  | 1.6 | 0.1 | 0.2 |  |  |  | OD450 nm [15]: 0.12; OD450 nm [17]: 0.07; OD450 nm [18]: 0.06; OD450 nm [19]: 0.07; OD450 nm [20]: 0.07; OD450 nm [21]: 0.07; OD450 nm [22]: 0.07; OD450 nm [23]: 0.06; OD450 nm [24]: 0.09; EC50 (read off the curve) [32]: 0.1 nM
6 | c29D9H8 (mouse-human chimeric IL-13 antibody) (antibody, V domains shown) VH: QVQLQQSGAELVRPGASVTLSCKASGYTFTDYEMHWVKQTPVHGLEWIGGIDPETGGTASNQKFKGKAILTADKSSSTAYMELRSLTSEDSAVYYCTSGDYFGGGPFAYWGQGTLVTVSA VL: DIKMTQSPSSMYASLGERVTITCKASQDINSYLSWFQQKPGKSPKTLIYRANRLVDGVPSRFSGSGSGQDYSLTISSLDYEDMGIYYCLQYDEFPYTFGGGTKLEIK | 3.6 |  | 1.23 |  |  |  | 2.46 | 2.92 |  | 0.4 | 2.99 |  |  |  |  |  | 0.2 | < 90 | 0.0324 | 0.000813 | OD450 nm [27]: 3.7; OD450 nm [31]: 3.06; kon [29]: 2.51e+07 M⁻¹ s⁻¹; EC50 (read off the curve) [30]: 0.2 nM; EC50 (read off the curve) [32]: 0.2 nM
